{"source": "paper PMC3136475", "key": {"[1]": {"biological_target": "S453P C-terminal peptide (CTP), His6-tagged, released from the chain by trypsin cleavage of S453P proaerolysin (Aeromonas hydrophila)", "experiment": "SPR; His-tagged proaerolysin bound to nickel charged NTA sensor chip via the His tag at the C-terminus of the CTP; trypsin added and release of the mature toxin followed; apparent Koff, by the authors only comparative"}, "[2]": {"biological_target": "S453P C-terminal peptide (CTP), His6-tagged, released from the chain by trypsin cleavage of S453P proaerolysin (Aeromonas hydrophila)", "experiment": "pull-down; proaerolysin processed with trypsin agarose beads at pH 8, incubated with His-bind resin preloaded with nickel (held by the His6 tag of the CTP), 4°C, 30 min, extensively washed; SDS-PAGE and Coomassie staining"}}}
{"substance": "aerolysin (mature toxin obtained by trypsin cleavage of proaerolysin) (from UniProt P09167 24-445) (natural protein)", "values": [{"measurement": "koff", "setting": "[1]", "result": 0.026, "unit": "s⁻¹"}, {"measurement": "percent of the total aerolysin in the unbound fraction (released from the bead-bound CTP)", "setting": "[2]", "result": 40, "unit": "%"}]}
